Experimental data taken from the supplement of paper PMC12338614.
± gives the uncertainty stated by the source.

B1: library; numbered along this chain (parent)
chain: MEVVDPQQLGMFTEGELMSVGMDTFIHRIDSTEVIYQPRRKRAKLIGKYLMGDLLGEGSYGKVKEVLDSETLCRRAVKILKKKKLRRIPNGEANVKKEIQLLRRLRHKNVIQLVDVLYNEEKQKMYMVMEYCVCGMQEMLDSVPEKRFPVCQAHGYFCQLIDGLEYLHSQGIVHKDIKPGNLLLTTGGTLKISDLGVAEALHPFAADDTCRTSQGSPAFQPPEIANGLDTFSGFKVDIWSAGVTLYNITTGLYPFEGDNIYKLFENIGKGSYAIPGDCGPPLSDLLKGMLEYEPAKRFSIRQIRQHSWFRKKHPPAEAPVPIPPSPDTKDRWRSMTVVPYLEDLHGADEDEDLFDIEDDIIYTQDFTVPGQVPEEEASHNGQRRGLPKAVCMNGTEAAQLSTKSRAEGRAPNPARKACSASSKIRRLSACKQQ

Variants of: B1
Assay: STK11 functional score (HeLa growth suppression), rescaled enrichment; synonymous median = 1, nonsense median = 0 (normalised score)
Conditions: with HeLa; variant type: missense
Method in brief: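 The functional score takes the post/pre-selection log ratio, corrects it to wild type, rescales it to synonymous and nonsense medians, and merges it over codons and replicate transfections, with error from bootstrapping. Counts came from tiled gDNA amplicons sequenced on NextSeq (~2 million reads per tile). The libraries were POPCode codon-randomised, codon-optimised STK11 integrated by Bxb1 at an AAVS1 landing pad in HeLa, three regions with three transfections each.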

Row | Variant | STK11 functional score
1 | P217C | 0.451 ± 0.36
2 | P217A | 1.25 ± 0.66
3 | P217W | 1.66 ± 0.13
4 | P217Y | 1.45 ± 0.31
5 | P217G | 1.53 ± 0.18
6 | P217L | 0.248 ± 0.24
7 | D237H | 1.53 ± 0.7
8 | D237E | 0.97 ± 0.53
9 | D237N | 1.36 ± 0.7
10 | D229S | 1.01 ± 0.28
11 | D229R | 0.991 ± 0.36
12 | D229E | 1.03 ± 0.51
13 | D229Y | 0.508 ± 0.12
14 | D229K | 0.652 ± 0.23
15 | D229H | 0.539 ± 0.17
16 | D229W | 0.347 ± 0.17
17 | D229V | 0.388 ± 0.095
18 | D229M | 1.28 ± 0.35
19 | D229T | 1.67 ± 0.13
20 | D229G | 1.03 ± 0.24
21 | D229P | 1.68 ± 0.15
22 | D229F | 0.981 ± 0.57
23 | D229A | 0.987 ± 0.31
24 | D229Q | 1.49 ± 0.46

Row | Variant | STK11 functional score
25 | D229L | 1.05 ± 0.19
26 | T230A | 0.88 ± 0.11
27 | T230R | 1.39 ± 0.35
28 | T230S | 0.93 ± 0.097
29 | T230C | 1.19 ± 0.34
30 | T230L | 0.829 ± 0.16
31 | T230V | 1.5 ± 0.18
32 | T230Q | 1.39 ± 0.22
33 | T230F | 0.961 ± 0.1
34 | T230H | 1.46 ± 0.38
35 | T230G | 0.522 ± 0.15
36 | T230N | 1.2 ± 0.42
37 | T230P | 1.1 ± 0.17
38 | T230E | 1.65 ± 0.17
39 | T230M | 0.971 ± 0.28
40 | T230W | 1.17 ± 0.48
41 | T230K | 1.29 ± 0.1
42 | A225L | 1.52 ± 0.2
43 | A225R | 1.07 ± 0.44
44 | A225T | 1.65 ± 0.34
45 | A225Y | 0.922 ± 0.45
46 | A225I | 1.42 ± 0.13
47 | A225P | 1.22 ± 0.62
48 | A225S | 1.06 ± 0.29

Row | Variant | STK11 functional score
49 | A225G | 1.05 ± 0.26
50 | A225V | 1.28 ± 0.52
51 | P222W | 0.686 ± 0.36
52 | P222C | 0.773 ± 0.62
53 | P222V | 0.826 ± 0.12
54 | P222E | 0.0466 ± 0.58
55 | P222A | 0.83 ± 0.2
56 | P222D | -0.103 ± 0.14
57 | P222H | 0.314 ± 0.11
58 | P222I | 1.13 ± 0.33
59 | P222T | 0.499 ± 0.25
60 | P222M | 0.595 ± 0.11
61 | P222L | 0.281 ± 0.091
62 | P222Q | 0.712 ± 0.2
63 | P222S | 1.15 ± 0.12
64 | P222N | 1.61 ± 0.13
65 | P222R | 0.93 ± 0.23
66 | P222F | 0.44 ± 0.099
67 | P222G | 0.489 ± 0.095
68 | K235T | 0.534 ± 0.21
69 | K235N | 0.877 ± 0.28
70 | K235Q | 1.58 ± 0.35
71 | K235A | 1.65 ± 0.24
72 | K235V | 0.794 ± 0.12

Row | Variant | STK11 functional score
73 | K235W | 1.51 ± 0.13
74 | K235P | 1.65 ± 0.36
75 | K235H | 1.29 ± 0.19
76 | K235C | 1.4 ± 0.27
77 | K235I | 1.06 ± 0.65
78 | K235S | 1.67 ± 0.14
79 | K235Y | 1.19 ± 0.36
80 | K235L | 1.24 ± 0.18
81 | K235G | 1.28 ± 0.35
82 | Q214S | 0.787 ± 0.1
83 | Q214D | 1.33 ± 0.23
84 | Q214L | 1.05 ± 0.15
85 | Q214H | 1.39 ± 0.53
86 | Q214M | 1.66 ± 0.2
87 | Q214R | 1.45 ± 0.14
88 | Q214G | 1.57 ± 0.22
89 | Q214N | 1.27 ± 0.31
90 | Q214C | 0.896 ± 0.11
91 | Q214A | 1.18 ± 0.19
92 | Q214F | 1.04 ± 0.3
93 | Q214P | 0.598 ± 0.18
94 | Q214W | 0.779 ± 0.19
95 | Q214Y | 1.19 ± 0.31
96 | Q214I | 1.05 ± 0.27

Row | Variant | STK11 functional score
97 | Q214V | 0.919 ± 0.23
98 | Q214E | 1.36 ± 0.5
99 | Q214T | 1.64 ± 0.2
100 | P221D | 0.00575 ± 0.14
101 | P221Y | -0.0979 ± 0.12
102 | P221L | 0.159 ± 0.17
103 | P221C | 0.759 ± 0.11
104 | P221I | 0.337 ± 0.12
105 | P221F | -0.0165 ± 0.09
106 | P221S | 1.07 ± 0.22
107 | P221R | 0.116 ± 0.18
108 | P221M | 0.39 ± 0.18
109 | P221G | 1.03 ± 0.14
110 | P221V | 1.01 ± 0.12
111 | G233Y | 1.04 ± 0.94
112 | G233S | 1.44 ± 0.3
113 | G233V | 0.47 ± 0.11
114 | G233N | 1.19 ± 0.26
115 | G233T | 1.7 ± 0.4
116 | G233C | 1.43 ± 0.097
117 | G233W | 1.16 ± 0.17
118 | G233D | 1.56 ± 0.24
119 | G233F | 1.46 ± 0.31
120 | G233R | 0.173 ± 0.3

Row | Variant | STK11 functional score
121 | G233L | 1.57 ± 0.32
122 | G233Q | 1.62 ± 0.24
123 | G233A | 1.3 ± 0.6
124 | S216T | 0.847 ± 0.13
125 | S216W | -0.0568 ± 0.11
126 | S216I | 0.119 ± 0.093
127 | S216G | 0.926 ± 0.23
128 | S216F | -0.0894 ± 0.09
129 | S216K | -0.0726 ± 0.095
130 | S216L | 0.0797 ± 0.09
131 | S216M | 0.227 ± 0.12
132 | S216V | 0.614 ± 0.25
133 | S216P | 0.894 ± 0.18
134 | S216E | -0.148 ± 0.092
135 | S216Y | -0.11 ± 0.12
136 | S216R | -0.166 ± 0.096
137 | S216D | 0.167 ± 0.37
138 | S216A | 0.851 ± 0.13
139 | S216N | 0.349 ± 0.12
140 | I224W | 1.3 ± 0.41
141 | I224V | 0.835 ± 0.24
142 | I224Q | 0.698 ± 0.65
143 | I224L | 1.28 ± 0.19
144 | I224H | 1.46 ± 0.41

Row | Variant | STK11 functional score
145 | I224P | 0.889 ± 0.11
146 | I224T | 0.252 ± 0.4
147 | I224E | 1.03 ± 0.86
148 | I224R | 1.04 ± 0.17
149 | I224M | 1.11 ± 0.48
150 | I224F | 1.09 ± 0.23
151 | I224N | 1.47 ± 0.42
152 | I224K | 1.19 ± 0.26
153 | I224S | 1.31 ± 0.28
154 | F219G | 0.713 ± 0.29
155 | F219P | 0.116 ± 0.32
156 | F219L | 1.11 ± 0.13
157 | F219S | 0.778 ± 0.18
158 | F219Y | 1.29 ± 0.54
159 | F219C | 0.557 ± 0.2
160 | F219H | 1.18 ± 0.66
161 | F219I | 1.31 ± 0.32
162 | F219V | 0.825 ± 0.13
163 | F219A | 0.528 ± 0.14
164 | F219Q | 1.57 ± 0.25
165 | F219R | 0.1 ± 0.098
166 | F219K | -0.214 ± 0.31
167 | F219W | 1.49 ± 0.11
